T1: human cysteine sulfinic acid decarboxylase (CSAD) (Homo sapiens, UniProt Q9Y600)
T1 construct: His6 and TEV site), tag kept (cleavage not mentioned); plasmid pNIC28-Bsa4; E. coli Rosetta(DE3); homodimer in crystal (PDB 2jis, solved by SGC)
T1 sequence (Q9Y600 1-493): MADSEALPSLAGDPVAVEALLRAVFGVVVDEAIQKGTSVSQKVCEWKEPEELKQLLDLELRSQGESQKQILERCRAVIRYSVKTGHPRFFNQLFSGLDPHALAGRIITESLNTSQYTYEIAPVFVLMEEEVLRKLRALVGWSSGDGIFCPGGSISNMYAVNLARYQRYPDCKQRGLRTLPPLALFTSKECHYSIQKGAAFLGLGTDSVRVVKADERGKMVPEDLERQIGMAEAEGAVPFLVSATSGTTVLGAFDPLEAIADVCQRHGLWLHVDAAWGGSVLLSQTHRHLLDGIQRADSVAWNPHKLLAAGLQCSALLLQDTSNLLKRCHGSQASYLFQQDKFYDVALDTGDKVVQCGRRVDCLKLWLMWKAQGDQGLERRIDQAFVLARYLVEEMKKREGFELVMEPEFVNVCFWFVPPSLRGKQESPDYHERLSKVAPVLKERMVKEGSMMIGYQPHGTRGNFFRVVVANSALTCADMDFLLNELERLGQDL

B1: human cysteine sulfinic acid decarboxylase (CSAD) (Homo sapiens) (protein)
chain: T1 sequence (Q9Y600 1-493)
notes: His6 and TEV site), tag kept (cleavage not mentioned); plasmid pNIC28-Bsa4; E. coli Rosetta(DE3); homodimer in crystal (PDB 2jis, solved by SGC)

Columns and labels:
[1] = target: T1, human cysteine sulfinic acid decarboxylase (CSAD); assay: restoration of catalytic activity by equimolar PLP; absorption spectrum after dialysis; assay type: biochemical; settings: covalent (Schiff base to Lys305 in PDB 2jis, not solved here); spectrum in 20 mM NaHEPES pH 7.5, 300 mM NaCl, 0.2 mM DTT, 5% glycerol
purified protein = substrate: N[C@@H](CS(=O)O)C(=O)O; assay: purified protein; assay type: biochemical, Homo sapiens; settings: 20 mM potassium phosphate pH 7.2, 0.2 mM DTT, 0.1 mM EDTA, 0.06 mM PLP, about 20 °C (room temperature), 0.33 μM CSAD, CSA 0.06–1 mM

Molecule	restoration of catalytic activity by equimolar PLP; absorption spectrum after di [1]	Km (purified protein) [µM]	kcat (purified protein) [s⁻¹]
Cc1ncc(COP(=O)(O)O)c(C=O)c1O [PLP, pyridoxal-5′-phosphate]	addition of exogenous PLP—in equimolar concentration with respect to the protein—restored the holo-form		
B1		200 ± 20	5.6 ± 0.2

Reference: publication PMC8153620, “A Novel, Easy Assay Method for Human Cysteine Sulfinic Acid Decarboxylase” (Life, 2021)
